Measurements from US20080044417A1 (MacroGenics, published 2008).

T1: FcγRIIB (CD32B) on Daudi cells (human, UniProt P31994 43-310)
T1 construct: whole, on cells; also called human B cell tumor line
T1 sequence (looked up): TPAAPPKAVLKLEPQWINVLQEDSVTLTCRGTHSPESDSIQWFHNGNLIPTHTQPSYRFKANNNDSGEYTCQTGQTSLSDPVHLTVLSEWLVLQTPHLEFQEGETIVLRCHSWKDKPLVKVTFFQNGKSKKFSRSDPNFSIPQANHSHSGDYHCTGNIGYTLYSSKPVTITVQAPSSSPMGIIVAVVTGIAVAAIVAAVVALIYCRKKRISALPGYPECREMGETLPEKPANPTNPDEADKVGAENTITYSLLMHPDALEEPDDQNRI

T2: soluble FcγIIA (UniProt P12318 34-217)
T2 construct: also called dimeric soluble FcγRIIa-Fc; FcγRIIA; not shown: the p
T2 sequence (looked up): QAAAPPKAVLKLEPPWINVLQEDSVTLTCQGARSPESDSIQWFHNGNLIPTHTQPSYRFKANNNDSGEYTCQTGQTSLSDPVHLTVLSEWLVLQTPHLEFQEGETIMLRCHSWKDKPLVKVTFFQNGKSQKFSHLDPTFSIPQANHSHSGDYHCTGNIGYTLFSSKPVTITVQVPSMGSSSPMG


Key:
[1] = target: T1, FcγRIIB (CD32B) on Daudi cells; experiment: FACS on Daudi cells, primary antibody 0.5 ug/ml, PE anti-human IgG Fc secondary
[2] = target: T1, FcγRIIB (CD32B) on Daudi cells; experiment: FACS on Daudi cells, primary antibody 0.5 µg/ml, PE anti-human IgG Fc secondary
Description: (§1) Protocol for FACS analysis. Approximately 10⁶ Daudi cells were used for each antibody staining. Cells were washed once with PBS. Primary antibodies (Ch2B6, Hu2B6Hc/ch2B6Lc, human IgG1) were diluted into 0.5, 0.1, 0.02 μg/mL in PBS/1% BSA and 100 μL of diluted antibodies was transferred to the cells. After 30 mins incubation at 4° C., cells were washed once with 1 mL PBS/1% BSA. PE conjugated F(ab′)₂ fragment of goat anti human IgG Fc specific (Jackson ImmunoReseach, Inc.) was used as secondary antibody at 1:1000 dilution. After 30 mins incubation at 4° C., cells were washed once with 1 mL PBS/1% BSA. The cells were then resuspended in 500 μL of PBS/1% BSA and subjected to be FACS analysis.
(§2) Transfections of HEK-293 cells were performed using the following combinations: hu2B6HC/hu2B6LC; hu2B6HC/hu2B6LC(N50Y); hu2B6HC/hu2B6LC(N50Y,V51A); ch2B6HC/ch2B6LC. After three days in culture the amount of human IgG expressed was quantitated by an ELISA assay, using the method described above. Binding to dimeric soluble FcγRIIb-Fc was determined by ELISA assay. […] FACS analysis was then performed to measure the binding of the mAbs to Daudi cells (Table 8).

[3] = target: T1, FcγRIIB (CD32B) on Daudi cells; experiment: FACS on Daudi cells, primary antibody 0.1 ug/ml, PE anti-human IgG Fc secondary
[4] = target: T1, FcγRIIB (CD32B) on Daudi cells; experiment: FACS on Daudi cells, primary antibody 0.02 ug/ml, PE anti-human IgG Fc secondary
[5] = target: T1, FcγRIIB (CD32B) on Daudi cells; experiment: FACS on Daudi cells, primary antibody 0.1 µg/ml, PE anti-human IgG Fc secondary
Description: as §1, §2

[6] = target: T1, FcγRIIB (CD32B) on Daudi cells; experiment: FACS on Daudi cells, primary antibody 0.02 µg/ml, PE anti-human IgG Fc secondary
Description: as §1, §2

soluble FcγIIA = target: T2, soluble FcγIIA; experiment: ELISA, 100 ng/well soluble FcγIIA coated
Description: Protocol for ELISA assay: 100 ng/well of soluble FcγIIA in carbonate buffer was coated on 96-well Maxisorp plates at 4° C. overnight. A serial of two-fold dilution of conditioned medium of Ch2B6; hu2B6HC/hu2B6LC; hu2B6HC/hu2B6LC(N50Y); hu2B6HC/hu2B6LC(N50Y,V51A); and purified IV.3 starting from 25 ng/well was added to the each well. The plate was incubated at room temperature for 1 hour. The binding was detected by HRP conjugated F(ab′)2 goat anti human IgG F(ab′)2 specific secondary antibody for Ch2B6 and all hu2B6 samples and HRP conjugated F(ab′)2 goat anti mouse IgG (H+L) secondary antibody for IV.3. After incubation with the secondary antibody for approximately 45 minutes, the plate was developed using a TMB substrate. After 5 mins incubation, the reaction was stopped by 1% H₂SO₄. The OD₄₅₀ nm was ready by SOFTmax program. Between each step, the plates were washed 3 times with PBS/0.1% Tween 20. The plates were blocked by 0.5% BSA in PBS/0.1% Tween 20 for 30 mins at room temperature before adding the serial diluted antibodies.

| Molecule | Mean Fluorescence [1] | Mean Fluorescence [2] | Mean Fluorescence ([2]; record 2) | Mean Fluorescence [3] | Mean Fluorescence [4] | Mean Fluorescence [5] | Mean Fluorescence ([5]; record 2) | Mean Fluorescence [6] | Mean Fluorescence ([6]; record 2) | binding result (soluble FcγIIA) |
| --- | --- | --- | --- | --- | --- | --- | --- | --- | --- | --- |
| Human IgG1 (antibody) | 6.07 | 9.49 | 1.23 | – | – | – | – | – | – | – |
| ch2B6 monoclonal antibody (ch2B6HC/ch2B6LC) | 552 | 193 | 647 | 515 | 168 | 141 | 512 | 45.6 | 173 | – |
| hu2B6HC/hu2B6LC(N50Y) (antibody, V domains shown, Human IgG; HEK-293 conditioned medium; also called Hu2B6 N50Y; Hu2B6N50Y) VH: QVQLVQSGAEVKKPGASVKVSCKASGYTFTNYWIHWVRQAPGQGLEWMGVIDPSDTYPNYNKKFKGRVTMTTDTSTSTAYMELRSLRSDDTAVYYCARNGDSDYYSGMDYWGQGTTVTVSS VL: EIVLTQSPDFQSVTPKEKVTITCRTSQSIGTNIHWYQQKPDQSPKLLIKYVSESISGVPSRFSGSGSGTDFTLTINSLEAEDAATYYCQQSNTWPFTFGGGTKVEIK | – | 191 | – | – | – | 135 | – | 40.1 | – | no binding |
| hu2B6HC/hu2B6LC monoclonal antibody (antibody, V domains shown, Human IgG (appropriate constant region segments); HEK-293 conditioned medium; also called humanized 2B6) VH: QVQLVQSGAEVKKPGASVKVSCKASGYTFTNYWIHWVRQAPGQGLEWMGVIDPSDTYPNYNKKFKGRVTMTTDTSTSTAYMELRSLRSDDTAVYYCARNGDSDYYSGMDYWGQGTTVTVSS VL: EIVLTQSPDFQSVTPKEKVTITCRTSQSIGTNIHWYQQKPDQSPKLLIKNVSESISGVPSRFSGSGSGTDFTLTINSLEAEDAATYYCQQSNTWPFTFGGGTKVEIK | – | 202 | – | – | – | 174 | – | 58.6 | – | no binding |
| hu2B6HC/hu2B6LC(N50Y,V51A) (antibody, V domains shown, Human IgG; HEK-293 conditioned medium; also called Hu2B6N50Y, V51A; Hu2B6N50Y,V51A) VH: QVQLVQSGAEVKKPGASVKVSCKASGYTFTNYWIHWVRQAPGQGLEWMGVIDPSDTYPNYNKKFKGRVTMTTDTSTSTAYMELRSLRSDDTAVYYCARNGDSDYYSGMDYWGQGTTVTVSS VL: EIVLTQSPDFQSVTPKEKVTITCRTSQSIGTNIHWYQQKPDQSPKLLIKYASESISGVPSRFSGSGSGTDFTLTINSLEAEDAATYYCQQSNTWPFTFGGGTKVEIK | – | 167 | – | – | – | 134 | – | 46 | – | no binding |
